From patent CN113880955A (dated 2022)
Changes are numbered by the printed parent chain. Names and notes keep the numbering of the source. Each block holds one binder with its values, some of them ahead of it.

Legend:
人CD70 [1] = target: T1, 人CD70 (human, UniProt P32970 1-193); experiment: flow cytometry on CD47+CD70+ U266 cells (double positive: binding through CD70 and/or CD47)
T1 construct: whole, on cells; also called 人类CD70; CD27L
T1 sequence (looked up): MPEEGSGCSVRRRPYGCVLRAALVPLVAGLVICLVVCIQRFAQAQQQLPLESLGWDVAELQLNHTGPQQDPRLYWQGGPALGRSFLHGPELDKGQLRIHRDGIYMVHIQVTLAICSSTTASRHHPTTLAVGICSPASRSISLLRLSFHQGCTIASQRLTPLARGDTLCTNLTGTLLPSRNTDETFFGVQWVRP

人CD47 = target: T2, 人CD47 (human, UniProt Q08722 19-323); experiment: as above
T2 construct: whole, on cells

人CD70 [2] = target: T1, 人CD70; experiment: flow cytometry on CHO cells expressing human CD70
人CD70 [3] = target: T1, 人CD70; experiment: flow cytometry on CD47+CD70+ Raji cells

T2 sequence (Q08722 19-323): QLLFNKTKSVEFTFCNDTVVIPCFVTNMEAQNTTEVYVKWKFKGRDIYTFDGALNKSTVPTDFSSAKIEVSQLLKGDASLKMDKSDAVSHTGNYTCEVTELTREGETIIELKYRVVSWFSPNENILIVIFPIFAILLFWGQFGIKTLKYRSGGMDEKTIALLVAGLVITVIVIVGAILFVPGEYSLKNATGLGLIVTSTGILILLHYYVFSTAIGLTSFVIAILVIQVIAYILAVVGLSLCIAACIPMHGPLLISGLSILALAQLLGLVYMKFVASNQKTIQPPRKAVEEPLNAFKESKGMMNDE

B1: IMM4002 (bispecific antibody, human IgG1, kappa)
heavy: not shown
light: DIVLTQSPASLAVSPGQRATITCRASKSVSASGYSFLHWYQQKPGQPPKLLIYLASNLESGVPARFSGSGSGTDFTLTINPVEANDTANYYCQHSRELPPTFGGGTKVEIKRTVAAPSVFIFPPSDEQLKSGTASVVCLLNNFYPREAKVQWKVDNALQSGNSQESVTEQDSKDSTYSLSSTLTLSKADYEKHKVYACEVTHQGLSSPVTKSFNRGEC
notes: Made in CHO-S cells; also called 重组融合蛋白IMM4002
- binding result (人CD70 [1]): binds

B2: IMM4002M (bispecific antibody, human IgG1, kappa)
heavy: not shown
light: B1 light with N85E
notes: As IMM4002, but the light chain variable region carries N85E, which removes the glycosylation site (antibody part = IMM40M); also called 重组融合蛋白IMM4002M
- binding result (人CD70 [1]): binds
- binding result (人CD47): binds

B3: IMM40H (antibody, human IgG1, kappa, V domains shown)
VH: QVQLVQSGAEVKKPGASVKVSCKVSGYTFTDSALHWVRQAPGKGLEWMGVISTYDGDTDYNQKFKGRVTMTEDTSTDTAYMELSSLRSEDTAVYYCARRGYYDYDWFPYWGQGTLVTVSA
VL: DIVLTQSPASLAVSPGQRATITCRASKSVSASGYSFLHWYQQKPGQPPKLLIYLASNLESGVPARFSGSGSGTDFTLTINPVEANDTANYYCQHSRELPPTFGGGTKVEIKR
notes: IgG antibody against CD70; also called CD70抗体IMM40H; CD70单特异性抗体IMM40H
- binding result (人CD70 [2]): binds

Now from value to binder:

- binding result (人CD70 [2]): binds
B4: IMM4003 (bispecific antibody, human IgG1, kappa)
heavy: QVQLVQSGAEVKKPGASVKVSCKVSGYTFTDSALHWVRQAPGKGLEWMGVISTYDGDTDYNQKFKGRVTMTEDTSTDTAYMELSSLRSEDTAVYYCARRGYYDYDWFPYWGQGTLVTVSAASTKGPSVFPLAPSSKSTSGGTAALGCLVKDYFPEPVTVSWNSGALTSGVHTFPAVLQSSGLYSLSSVVTVPSSSLGTQTYICNVNHKPSNTKVDKRVEPKSCDKTHTCPPCPAPELLGGPSVFLFPPKPKDTLMISRTPEVTCVVVDVSHEDPEVKFNWYVDGVEVHNAKTKPREEQYNATYRVVSVLTVLHQDWLNGKEYKCKVSNKALPAPIAATISKAKGQPREPQVYTLPPSREEMTKNQVSLTCLVKGFYPSDIAVEWESNGQPENNYKTTPPVLDSDGSFFLYSKLTVDKSRWQQGNVFSCSVMHEALHNHYTQKSLSLSPGK
light: not shown
notes: also called 重组融合蛋白IMM4003

- binding result (人CD70 [3]): binds
B5: Cusatuzumab (antibody, human IgG1, lambda, V domains shown)
VH: EVQLVESGGGLVQPGGSLRLSCAASGFTFSVYYMNWVRQAPGKGLEWVSDINNEGGTTYYADSVKGRFTISRDNSKNSLYLQMNSLRAEDTAVYYCARDAGYSNHVPIFDSWGQGTLVTVSS
VL: QAVVTQEPSLTVSPGGTVTLTCGLKSGSVTSDNFPTWYQQTPGQAPRLLIYNTNTRHSGVPDRFSGSILGNKAALTITGAQADDEAEYFCALFISNPSVEFGGGTQLTVLG
notes: IgG antibody against CD70, used as control
